For test [1], the target named is T1, recombinant human GM-CSF (human, UniProt P04141 18-144).
T1 construct: also called rhGM-CSF
Put plainly: SPR (BIAcore 2000), rhGM-CSF on the chip, global fitting of Rmax. Here is the method: Biosensor analyses were carried out using a commercially available, BIAcore 2000, and a carboxymethyldetran coated sensor chip. The chip was derivatized with 1000, 300, or 100 RVs of recombinant human GM-CSF, on channels 1, 2, and 3 of the machine using standard amine coupling chemistry with channel 4 retained as the control blank channel.
After injection, dissociation was monitored by allowing HBS buffer to flow over the chip surface for 5 minutes. Any bound antibody was then eluted, and the chip surface was regenerated, between samples, via injecting 40 μl of 100 mM HCl, pH 2.7, at a rate of 5 μl/min.

The target of test [2] is G250 antigen (UniProt Q16790 38-459). As to the kind of experiment: flow cytometry (FACS) on G250 positive tumor cells. For orientation: A flow cytometer gives signals particle by particle.

T1 sequence (P04141 18-144 limits assumed): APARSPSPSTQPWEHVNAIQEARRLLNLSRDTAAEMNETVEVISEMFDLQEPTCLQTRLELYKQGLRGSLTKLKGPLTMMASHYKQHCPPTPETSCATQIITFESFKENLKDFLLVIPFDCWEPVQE

B1: chimeric 19/2 anti-human GM-CSF monoclonal antibody (antibody, V domains shown)
VH: EVQLQQSGPELVKPGASVKISCKASGYTFTDYNIHWVKQSHGKSLDWIGYIAPYSGGTGYNQEFKNRATLTVDKSSSTAYMELRSLTSDDSAVYYCARRDRFPYFDYWGQGTTLRVSS
VL: DIVMIQSQKFVSTSVGDRVNITCKASQNVGSNVAWLQQKPGQSPKTLIYSASYRSGRVPDRFTGSGSGTDFILTITTVQSEDLAEYFCQQFNRSPLTFGSGTKLELKR
notes: made in CHO DG44 cells; also called chimeric 19/2 antibody; ch19/2
Broadly, the koff is a measure of how fast the partners let go of each other. For the molecule B1, in test [1], the Ka was determined as 2.69e+10 M⁻¹ and the koff was 1.9e-05 s⁻¹.

B2: chimeric G250 antibody (antibody, V domains shown)
VH: DVKLVESGAALVKLGGSLKLSCAASGFTFSNYYMSWVRQTPEKRLELVAAINSDGGITYYLDTVKGRFTISRDNAKNTLYLQMSSLKSEDTALFYCARHRSGYFSMDYWGQGTSVTVSS
VL: DIVMTQSQRFMSTTVGDRVSITCKASQNVVSAVAWYQQKPGQSPKLLIYSASNRYTGVPDRFTGSGSGTDFTLTISNMQSEDLADFFCQQYSNYPWTFGGGTKLEIKR
notes: Used as positive control in FACS; Its making is not described apart from this
On to B2, for which, in test [2], the binding result is “binds”.
